Assay results as given in patent US7018836B1, “P-TEFb compositions, methods and screening assays” (priority 1996, dated 2006).

Assays:
[1] = tested on: transcription from HIV-1 LTR; test: In vitro Tat transactivation in HNE with TAR and DTAR templates (FIG. 8); format: biochemical, human
Experimental: The transcription template (Nco I-digested pLTR-4/CAT vector containing the HIV-1 LTR from −153 to +80) was used in a pulse-chase transcription experiment. Reactions (12 μl total; 20 mM HEPES, pH 7.6, 7 mM MgCl2, 20 μg/ml DNA template, 3 μl HNE, 64 mM KCl, with 50 μM DRB or 0.3 μl Drosophila P-TEFb (Marshall et al., 1996) as indicated) were pre-incubated for 20 minutes at 30° C., pulsed for 2 minutes by adding ATP, GTP, UTP to 600 μM each and 5 μCi [α-^32P]CTP (˜0.1 mM), and chased for 5 minutes by adding CTP to 1.2 mM. Reactions were stopped, phenol extracted and analyzed on a 6% polyacrylamide gel as described (Marshall and Price, 1995). pLTR-TAR-Luc and pLTR-DTAR-Luc plasmids were digested with Eco RI to generate TAR and DTAR template that were used in the studies. The TAR template contains HIV-1 LTR from −475 to +76, while the DTAR template contains HIV-1 LTR from −475 to +19. Transcription with TAR and DTAR templates generates runoffs of 694 and 646 nucleotides, respectively. The transcription reaction mix contained 20 mM HEPES (pH7.6), 7 mM MgCl2, 60 mM KCl, 0.5 μl HNE (or depHNE as indicated), 20 μg/ml TAR template (or DTAR template as indicated), indicated amount of HIV-1 Tat (86 residue HIV-1 Tat followed by a streptavidin binding tag at its carboxyl terminus) and DRB. The reaction mix was pre-incubated for 15 minutes at 30° C. and the transcription was started by adding nucleotides to final concentrations of 50 μM ATP, 50 μM GTP, 50 μM UTP, 10 μM CTP, and 5 μCi [α-^32P]CTP (˜0.1 mM), and continuously labeled for 20 minutes, or by adding nucleotides to final concentrations of 50 μM ATP, 50 μM GTP, 50 μM UTP, and 5 μCi [α-^32P]CTP (˜0.1 mM), and pulsed for 2 minutes. The reactions were stopped and reaction mix were phenol-extracted. The transcripts were then analyzed on a 6% polyacrylamide gel as described (Marshall and Price, 1995).

RNA polymerase II = test: Kinase assay of recombinant P-TEFb subunits with RNA polymerase II as substrate (Table 1); format: biochemical, Drosophila; conditions: RNA polymerase II as substrate
Experimental: 0.4 μl of purified RNA polymerase II and various protein samples were mixed in 18 μl of 55 mM HMK. The reaction was then initiated by the addition of 2 μl of a solution containing 2 μCi of [γ-^32P]ATP (ICN) and unlabeled ATP at 10 μM, or only unlabeled ATP at concentrations from 1 to 100 μM or other NTPs or dNTPs at concentrations of 1 to 100 μM. Reactions were incubated for the indicated times at 23° C. and then terminated with SDS loading buffer. Samples were analyzed on a 6–15% SDS polyacrylamide gel which was silver stained, dried and subjected to autoradiography if the assay contained label.
Using the CTD Kinase assay, as previously described in Example 2, Section A.7, both HBL1-1 (SEQ ID NO:45), HBL2(SEQ ID NO:47) and HBL3 (SEQ ID NO:50) were substituted for the large subunit in the Drosophila transcription system. Alone “PITARLE” has little kinase activity and no detectable activity in transcription.

[2] = tested on: transcription in Drosophila extract depleted of P-TEFb; test: Transcription activity of recombinant protein added into Drosophila extract depleted of P-TEFb (Table 1); format: biochemical

B1: Tat: 86 residue HIV-1 Tat followed by a streptavidin binding tag at its carboxyl terminus (protein)
chain: MEPVDPRLEPWKHPGSQPKTACTNCYCKKCCFHCQVCFITKALGISYGRKKRRQRRRAHQNSQTHQASLSKQPTSQPRGDPTGPKE
modifications: left off: large carriers
Q: What does the source list for B1?
A: stimulation of generation of runoff ([1]; HNE not depleted, TAR template, continuous labeling, 10 ng/μl Tat): about 12 fold; increase of runoff in presence of 50 μM DRB, DTAR template or absence of human P-TEFb ([1]; continuous labeling): about two; increase of transcription initiation (short pulsed transcripts) ([1]; pulse-only protocol, 10 ng/μl Tat): about two

B2: DBS: Drosophila P-TEFb small subunit, HIS-tagged recombinant (protein)
chain: MAHMSHMLQQPSGSTPSNVGSSSSRTMSLMEKQKYIEDYDFPYCDESNKYEKVAKIGQGTFGEVFKAREKKGNKKFVAMKKVLMDNEKEGFPITALREIRILQLLKHENVVNLIEICRTKATATNGYRSTFYLVFDFCEHDLAGLLSNMNVKFSLGEIKKVMQQLLNGLYYIHSNKILHRDMKAANVLITKHGILKLADFGLARAFSIPKNESKNRYTNRVVTLWYRPPELLLGDRNYGPPVDMWGAGCIMAEMWTRSPIMQGNTEQQQLTFISQLCGSFTPDVWPGVEELELYKSIELPKNQKRRVKERLRPYVKDQTGCDLLDKLLTLDPKKRIDADTALNHDFFWTDPMPSDLSKMLSQHLQSMFEYLAQPRRSNQMRNYHQQLTTMNQKPQDNSMIDRVW
modifications: left off: small tags and cut ends
notes: Drosophila P-TEFb small subunit, HIS-tagged recombinant
Q: B2 was tested. Which Kinase activity (RNA polymerase II) did it give?
A: The Kinase activity was “very little”.

Q: What about the Transcription activity [2] of the same molecule?
A: Its Transcription activity is “none”.
